Laboratory results as given in the nanobody polyreactivity screen of Harvey et al. (2022).

Test: yeast display, Sf9 membrane polyspecificity reagent, FACS + sequencing; frameworks hold sequencing errors
Summary of the method: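 Nanobodies from a synthetic yeast display library (Saccharomyces cerevisiae BJ5465), induced 36–48 hours with galactose, were stained 1 hour at 4 °C with 10% biotinylated, detergent-solubilized Sf9 membrane reagent, enriched on streptavidin microbeads, then FACS-sorted. Anti-HA (expression) and streptavidin (reagent binding) fluorescence set low and high (top ~1%) gates. Polyreactivity labels come from the gate of origin. Genes were colony-PCR amplified, MiSeq 2 × 250 sequenced and filtered by CDR length.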

Row | Sequence | polyreactivity (PSR sort gate)
1 | QVQLQESGGGLVQAGGSLRLRCAASGSISRLDYMGWYRQASGKELELVAAIDNGSTTYYADSVKGRLTISRDNEKYTVYLKMNSLKPEDTAVYFCAAVRGRGGTHAYWGQGTQVTVSG | low polyreactivity
2 | QVQLVESGGGLVQAGGSLRLSCAASGSIFGLYAMGWYRQAPGKERELVAAISTSSGRTYYADSVKGRFTISRDNAKNTVYLQMNSLKPEDTAVYYCAASGAWWSLHYAGDYWGQGTQVTVSS | high polyreactivity
3 | QVQLVESGGGLVQAGGSLRLSCAASGSIFSANAMGWYRQAPGKERELVAAIRRTGGSTYYADSVKGRFTISRDNAKNTVYLQMNSLKPEDTAVYFCTKRHSILYEGGYDYWGQGTQVTVSS | low polyreactivity
4 | QVQLVESGGGLVQAGGSLRLSCAASGIIFRYYAMGWYRQAPGKEREWVAAISSSGVSTYYADSVKGRFTISRDNAKNNVYLQMNSLKPEDTAVYYCAAVTTWRMDYWGQGTQVTVSS | high polyreactivity
5 | QVQLVESGGGLVQAGGSLRLSCAASGRIFSYYDMGWYRQAPGKERELVARISYSGDSTYYADSVKGRFTISRDNAKNTVYLQMNSLKPEDTAVYYCAADSITSKNQGLDYDYWGQGTQVTVSS | low polyreactivity
6 | QVQLVESGGGLVQAGGTLRISCAASGRTFGIYAMGWSRQAPGKERELVAAITGRGGSTHYADSVKGRFTISRDNAKNTVYLQMNSLQPEDTAVYYCAADYRYNRGITSNKDYEYWGQGTQVSVSS | low polyreactivity
7 | QVQLVESGGGLVQAGGSLRLSCAASGSIFASYAMGWYRQEPGKERELVAAISRRAVRTYYADSVKGRFTISRDNAQNTVYLQMNSLKPEDTAVFYCAKDYRDWRKYDFWGQGTQVTVSS | high polyreactivity
8 | QVQLVESGGGLVQAGGSLRLSCAASGSTFFRNAMGWYRQAPGKERELVAAITWSGGSTYYADSVKGRFTISRDNAKNTVYLQMNSLKPEDTAVYYCAAGLSYWTPHYYPFDYWGQGTQVTVSS | low polyreactivity
9 | QVQLVESGGGVVQAGGSLRLSCAASGFTYVYNAIGWYRQAPGKDMELVATISWRGGSTYADSVKGRFTISRDNAKNTVYLQINSRKPEDTAIYYCNAASRVSQAMDYWGQGTQVTVSS | high polyreactivity
10 | QVQLVESGGGLVQAGGSLRLSCAASGYISGVYPMGWYRQAPGKERELVAAITKRGGNTYYADSVKGRFTISRDNAKNTVYLQMNSLKAEDTAVYYCAKKTAGHPWGPIYDYWGQGTQVTVSS | high polyreactivity
11 | QVHLVESGGGLVQAGGSLRLSCAASGNTFRWYDMGWYRQAPGKERELVAAITSSGSTTYYADSVKGRFTISRDNAKNTVYLQMNSLKPEDTAVFYCAARNYGPYDYWGQGTQVTVSS | low polyreactivity
12 | QVQLVESGGGLVQAGGSLRLSCAASGNIFGRYAMGWYRQAPGKARELVAAISGSGGRTYYADSVKGRFTISRYNAKKTVYLQMNSLKPEDTAVYYCAKVFALRGYDYWGQGTQVTVSS | high polyreactivity
13 | QVQLVESGGCLVQAGGSLRLSCAASGFIFNKYAMGWSRQATGKERELVAAISFRGGRTYYADSVKGRFTISRDNAKNTVYFQMNSLKPEDTAVYYCAAETRDYSEGYYWGQGTQVTVSS | high polyreactivity
14 | QVQLVESGGGLVQAGGSLRLSCAASGSTFPYYPMGWYRQAPGKERELVAAISRGDSTNYADSVKGRFTISRDNAKNTVYLQMNCLKPEDTAVYYCAARLQYRRTSVKYYFWGQGTQVTVSS | high polyreactivity
15 | QVQLVESGGGLVQAGGSLRLSCAASGSIFYTNALGWSRQARGKERELVAAMSISGSTYYADSVKGRFTISRDNAKNTVYLQMNSLKPEDTAVYYCAAGPGYVRYPRSGVWYVTLYDYWGQGTQVTVSS | high polyreactivity
16 | QVQLVESGGGLVQAGGSLRLSCAASGNIFSAYAMGWYRQAPGKERELVAAITNGGRTNYADSVKGRFSISRDNAKNTVYLQMNSLKPEDTAVYYCAVASTILGKRTYYYWGQGTQVTVSS | low polyreactivity
17 | QVQLVESGGGLVQAGGSLRLSCAASGSIFFLYAMGWYRQATGKEREFVAAITGTADSTYYADSVKGRFTISRDDAKNTVYLQMNSLNPEDTAVYYCATDYWSSVKLDDYWGQGTQVTVSS | low polyreactivity
18 | QVQLVESGGGLVQAGGSLRLSCAASGFIFDVNALGWSRQATGKERELVATISKRGGTTYYADSVKGRFTISRDNAKNTVYLQMYSLKPDDTAVYYCAARHQTLRSYRYDYWGQGTQVTVSS | low polyreactivity
19 | QVQLVESGGGLVQAGGSLRLTCAASGYIFLQYAMGWYRPAPGKERELVAAITYNGGITYYADSVKGRFTISRDNAKNTVYLQRNSLKPEDTAVYYCAADKNQDVSYVGFDYWGQGTQVTVSS | low polyreactivity
20 | QVQLVESGGGLVQAGGSLRLSCAASGSTFAFYDMGWYRQAPGKERELVAIIDWSGGRTYYADSVKGRFTISRDNAKNTVYLQMNSLKPEDTAVYYCNAENTYLGSRYRPYNYWGQGTQVTVSS | low polyreactivity
21 | QVQLVESGGGLVQAGGSLRLSCAASGFTFSVYAMGWYRQAPGKERELVAAINWSGSTTYYADSVKGRFTISRDNAKNTVYLQMNSLKPEDTAVYYCAVEGRTTWPFRTYGYWGQGTQVTVSS | high polyreactivity
22 | QVQLVEAGGGLVQAGGSLRLSCAASGYIGGNAMGWYRQAPGKERELVANISRSGGSTYYADSVKGRFTISRDNAKNTVYLQMNSLKPEDTAVYYCAAVSYGKYHWGMYYWGQGTQVTVSS | high polyreactivity

Row | Sequence | polyreactivity (PSR sort gate)
23 | QVQLVESGGGLVQAGGSLRLSCAASGFTIDAYAMGWYRQAPGKERELVAAISDGGNTYYADSVKGRFTISRDNAKNTVYLQMNSLKPEDTAVYYCNVDWYSYWYYTYEKSSEWAMEYWGQGTQVTVSS | low polyreactivity
24 | QVQLVETGGGLVQAGGSLRLSCAASGFIQSGYAMGWYRQAPGKERELVATITWRDGSTYYADSVKGRYTISRDNAKNTVYLQKNSLKPEDTEVYYCAVAAYSRRSPYYHYNYWGQGTQVTVSS | high polyreactivity
25 | QVQLVESGGGLVQAGGSLRLSCAASGSTFNYNAMGWYRQAPGKERELVAAINRSGGRTYYADSVKGRFTISRDNAKNTVYLKMNSLKPEDTAVYYCAKRYYKSLNRDEFDSWGQGTQVTVSS | high polyreactivity
26 | QVQLVESGGGLVQAGGSLRLSCAASGRIFRKYTMGWYRQAPGKERELVAAISRNGGDTYYADSVKGRFTISRDNAKNTVYLQMNSLKPEDTAVYYCNARTPTDSTHFDYWGQGTQVTVSS | low polyreactivity
27 | QVQLVESGGGLVQAGGSLRLSCAASGSIFVDYAMGWYRPAPGNERELVADITSDGGSTDYADSVKGRFTISRDYAKNTVYLQMHSLNPEDTAVYDCAALKTQVLGVVEYGYDYWGQGTQVTVSS | high polyreactivity
28 | QVQLVESGGGLLQAGGSLRLSCAASGINFSKYAMGWYRQAPGTERELVAVISASGGGTYYADSVKGRFTISRDNAKNTVYLQMNSLKPEDTAVYFCAADSSDVYDYWGQGTQVTVSS | high polyreactivity
29 | QVQLVESGGGLVQAGGSLRLSCAASGRTCKYYAMGWYRPAPGKEREEVAAINSGGITYYADSVKGRFTISRDNAKNTVYLQMNSLKPEDTAVYYCAKVWKIGVLRYPSYGYSYWGQGTQVTVSS | high polyreactivity
30 | QVQLVESGGGLVQAGGSLRLSCAASGFTFYSYAMGWYRQAPGKERELVAAISWSGTRTYYADSVKGRFTISRDNAKYTVYLQMNSLKPEDTAVYYCAARGYRYGYGYWGQGTQVTVSS | high polyreactivity
31 | QVQLVESGGGLVQAGGSLRLSCAASGFISNGYAMGWYRQAPGKEREFVASISSSGGSTYYADSVKGRFTISRDIAKNTVYLQMNSLKTEDTAVYYCNARYWWVIKVKLGYWGQGTQVTVSS | low polyreactivity
32 | QVQLVESGGGLVQAGGSLRLSCAASGRIFSVYAMGWYRQAPGKEREFVAAITKGGVGTYYADSVKGRFTISRDNAKNTVYLQMNSLKPEDTAVYYCAARHYYGADRYYSWGQGTLVTVSS | high polyreactivity
33 | QVQLVESGGGLVQAGGSLRLSCAASGSTLVGNAMGWYRQAPGKERELVAAISSSGTSTYYADSVKGRFTISRDNAKNTVYLQMNSLKPEDTAVYYCAAYVYGVGMDYWGQGTQVTVSS | high polyreactivity
34 | QVQLVESGGGLVQAGGSLRLSCAASGRNLRWYAMGWYRPAPGKERELVAAISTRSGSTYYADSVKGRFTISRDNAKNTVYLQMNSLKPEDTAVYYCAAQFWVKGQPQYGYLGQGTQVTVSS | high polyreactivity
35 | QVQLVESGGGLVQAGGSLRLSCAASGFIFYNYAMGWYRQAPGKERELVADINSTGITYYADSVKGRFTISRDNAKNTVYLQMNSLKPEDTAVYYCAKDILTSSYRAYSPFEYGYWGQGTQVTVSS | low polyreactivity
36 | QVQVVESGGGFVQAGGSLRLSCAASGFTYYSYAMGWYRQAPGKEREFVAAGSTYYADSVKGRFTISRDNAKNTVYLQMNSLTPEDTAVYYCAADPWIYVQSYGYWGQGTQVTVSS | low polyreactivity
37 | QVKLVESGGRLVQAGGSLRLSCAASGIIFFSYAMRSYRQAPGKERELVAAISGTGGNTYYADSVKGRFTISRDNAKNTVYFQMNSLKPEDTAVYYCAADQEWYYYFVSFAYYILDYWGQGTEVTVSS | high polyreactivity
38 | QVQLVESGGGLVQEGGSLRISCASSGFIFASYAMAWYIQAPGKERELVAAITQSGGITYYADSVKERFTISRDNAKYTVYLQMNSLKPEDTAVFYCNTPLLKRTTRCRERNYWGQGTQVTVSS | low polyreactivity
39 | QVQLVESGGGLVQAGGSLRLSCAASGSIIYRNVMGWYRQAPGKERELVAAISSNGGRTYYADSVKGRFTISRDNAKNTVYLQMNSLKPEDTAVYYCAADTYPGTYYWGQGTQVTVSS | high polyreactivity
40 | QVQLVESGGGVVQAGGSLRLSCAAYGSIFEANDMGWYRQAPGKERELVAAIDANTGSTYYADSVKGRFTISLDNAKNTVYLQMNSLKPEVTAVYYCNAQVYLQTAYDYWGQGTQVSVSS | low polyreactivity
41 | QVQLVESGGGLVQAGGSLRLSCAASGGTFPYNAMGWYRQAPGKEREFVAAISYTGGSTYYADSVKGRFTISRDNAKNTVYLQMNSLKPEDTAVYYCATEHTRTASGYWGQGTQVTVSS | low polyreactivity
42 | QVQLVESGGGLVQAGGSLRLSCAASGSTFSEYAMGWYRQAPGKERELVASITWSDDSTYYADSVKGRFTISRDNAKITVYLQMNSLKPEDSAVYYCAVRTGRRWWKFDYWGQGTQVTVSS | low polyreactivity
43 | QVQLVESGGGLVQAGGSLRLSCAASGSIFYSNAMGWYRQAPGKERELVAAISGSGGTTYYADSVKGRFTISRDNAKNTVYLQMNSLKPEETAVYYCAAKPSVRVRLSDYWGQGTQVTVSS | high polyreactivity
